{
  "source": "patent US10736970B2",
  "about": "“Polypeptide complex of titin-telethonin beta-pleated sheet structure as polypeptide drug carrier, method of using the polypeptide complex, and fusion protein complex thereof” (TIANJIN INSTITUTE OF INDUSTRIAL BIOTECHNOLOGY, CHINESE …, priority 2015, dated 2020)",
  "molecules": {"B1": {"name": "GLRecom: Single fusion protein: GLP-1(8G)-Z1Z2, Telethonin beta-pleated sheet region and second Z1Z2 connected via linkers (SEQ ID NO: 20), 60.0 kDa (protein)", "chain": "MKHHHHHHPMSDYDIPTTENLYFQHGEGTFTSDVSSYLEGQAAKEFIAWLVKGRGGGGGSGGGGSGGGGSAMATQAPTFTQPLQSVVVLEGSTATFEAHISGFPVPEVSWFRDGQVISTSTLPGVQISFSDGRAKLTIPAVTKANSGRYSLKATNGSGQATSTAELLVKAETAPPNFVQRLQSMTVRQGSQVRLQVRVTGIPTPVVKFYRDGAEIQSSLDFQISQEGDLYSLLIAEAYPEDSGTYSVNATNSVGRATSTAELLVQGSGSGSAPGTPGGGGSGGGGSGGGGSMATSELSSEVSEENSERREAFWAEWKDLTLSTRPEEGSSLHEEDTQRHETYHQQGQSQVLVQRSPWLMMRMGILGRGLQEYQLPYQRVLPGASGPAGSPTGSGPGSAGSGPGSAGMATQAPTFTQPLQSVVVLEGSTATFEAHISGFPVPEVSWFRDGQVISTSTLPGVQISFSDGRAKLTIPAVTKANSGRYSLKATNGSGQATSTAELLVKAETAPPNFVQRLQSMTVRQGSQVRLQVRVTGIPTPVVKFYRDGAEIQSSLDFQISQEGDLYSLLIAEAYPEDSGTYSVNATNSVGRATSTAELLVQG"}},
  "key": {"[1]": {"tested_on": "SD rats", "assay": "Insulin content in rat plasma during OGTT", "format": "in vivo", "conditions": "single i.p. 25 nmol/kg", "experimental": "(§1) The rats in the first three groups were given 25 nmol/kg by intraperitoneal injection, the rats in the PBS group were given the same volume of PBS, and the blood glucose was measured by a blood glucose meter. After 30 min, 2 g glucose/kg body weight was given by oral gavage, which was assumed to occur at 0 min, and then the blood glucose level was measured respectively at 10, 30, 60, 90, and 120 min. The area under curve (AUC) was calculated using Graphpad Prism 6.0 software. During the process, blood was taken from the tail vein respectively at 0, 10, and 30 min, added to a centrifuge tube containing EDTA-Na2, and centrifuged at 4000 rpm for 10 min. The supernatant was collected, and the insulin content was measured by using the Rat/Mouse Insulin Elisa kit (Millipore).\nIn the OGTT test of each group, blood was taken from the tail vein of rats at a time ranging from 10 to 30 min, and added dropwise to an Ep tube containing EDTA-Na2. The plasma was removed, and the insulin content was determined by using the Insulin Elisa kit (Millipore).\n(§2) During the process, blood was taken from the tail vein at a time ranging from 10 to 30 min, added to a centrifuge tube containing EDTA-Na2, and centrifuged at 4000 rpm for 10 min. The supernatant was collected, and the insulin content was measured by using the Rat/Mouse Insulin Elisa kit (Millipore)."}, "[2]": {"tested_on": "SD rats", "assay": "Oral glucose tolerance test (OGTT) in rats, blood glucose", "format": "in vivo, rat", "conditions": "single i.p. 25 nmol/kg", "experimental": "as §1\nSD rats of about 250 g were randomized into 4 groups (n=5), including a 1 nmol/kg group, a 5 nmol/kg group, a 25 nmol/kg group, and a PBS group.\nThe animals were allowed to free access to food for 12 h, and then fasted for 12 h. Then, OGTT was carried out. […]\nThe blood glucose level was measured by a blood glucose meter, and this was assumed to occur at −30 min. […] Then, the blood glucose was measured respectively at 10, 30, 60, 90, and 120 min. The area under curve (AUC) was calculated using Graphpad Prism 6.0 software."}, "[3]": {"conditions": "literature / background value; cited from earlier work"}, "[4]": {"conditions": "rat, in vivo", "experimental": "Blood was sampled from the tail respectively at 0, 0.5, 1, 1.5, 2, 4, 6, and 10 h, and dripped into an Ep tube pretreated with EDTA-Na2. A DPP-4 inhibitor was immediately added (in 30 s) after the blood was sampled.\nThen, blood was taken respectively at 1, 2, 4, 8, and 24 h, and added dropwise to an Ep tube pretreated with EDTA-Na2.\n(§3) 1 nmol GLZ/TeN was administered to the SD rats (about 250 g) by intravenous (i.v) injection at the tail and by subcutaneous injection (s.c), and this was assumed to occur at 0 h. Blood was sampled from the tail vein of the rats respectively at 0.05, 0.5, 2, 4, 8, 11, 24, and 48 h, and dripped into an Ep tube pretreated with EDTA-Na2. The protease inhibitor protinin was immediately added (in 30 s) after the blood was sampled.\nas §3, with “2.8” for “1”, “GLRecom” for “GLZ/TeN”, “tail,” for “tail and by subcutaneous injection (s.c),”, “5, 10,” for “4, 8, 11,”, “a centrifugation” for “an Ep”"}, "[5]": {"tested_on": "C57BL/6 mice", "assay": "Insulin content during OGTT in C57BL/6 mice", "format": "in vivo, mouse", "conditions": "i.p. 10 nmol/kg", "experimental": "as §2"}, "[6]": {"tested_on": "C57BL/6 mice", "assay": "OGTT in C57BL/6 mice, blood glucose", "format": "in vivo, mouse", "conditions": "i.p. 10 nmol/kg", "experimental": "C57BL/6 mice of about 25 g were randomized into 3 groups (n=5), including a PBS group, a Z1Z2/GLTe-G group, and a GLRecom group. The animals in the Z1Z2/GLTe-G group and the GLRecom group were given the Z1Z2/GLTe-G and GLRecom respectively by intraperitoneal injection at a dosage of 10 nmol/kg body weight, and the animals in the PBS group were given the same volume of PBS. The blood glucose level was measured by a blood glucose meter, and this was assumed to occur at −30 min. After 30 min, 2 g glucose/kg body weight was given by oral gavage, and this was assumed to occur at 0 min. Then, the blood glucose was measured respectively at 10, 30, 60, 90, and 120 min. The AUC was calculated by using the Graphpad Prism 6.0 software."}},
  "data": [
    {"molecule": "CC[C@H](C)[C@H](NC(=O)[C@H](Cc1ccccc1)NC(=O)[C@H](CCC(=O)O)NC(=O)[C@H](CCCCN)NC(=O)[C@H](C)NC(=O)[C@H](C)NC(=O)[C@H](CCC(N)=O)NC(=O)CNC(=O)[C@H](CCC(=O)O)NC(=O)[C@H](CC(C)C)NC(=O)[C@H](Cc1ccc(O)cc1)NC(=O)[C@H](CO)NC(=O)[C@H](CO)NC(=O)[C@@H](NC(=O)[C@H](CC(=O)O)NC(=O)[C@H](CO)NC(=O)[C@@H](NC(=O)[C@H](Cc1ccccc1)NC(=O)[C@@H](NC(=O)CNC(=O)[C@H](CCC(=O)O)NC(=O)[C@H](C)NC(=O)[C@@H](N)Cc1c[nH]cn1)[C@@H](C)O)[C@@H](C)O)C(C)C)C(=O)N[C@@H](C)C(=O)N[C@@H](Cc1c[nH]c2ccccc12)C(=O)N[C@@H](CC(C)C)C(=O)N[C@H](C(=O)N[C@@H](CCCCN)C(=O)NCC(=O)N[C@@H](CCCNC(=N)N)C(=O)NCC(=O)O)C(C)C", "note": "[GLP-1, Glucagon-like peptide 1, reference compound]", "values": [
      {"measurement": "blood insulin content during OGTT", "setting": "[1]", "result": "significantly increase the blood insulin content"},
      {"measurement": "period of time of effective blood glucose control in OGTT", "setting": "[2]", "result": 30, "unit": "min"},
      {"measurement": "effect on blood glucose level in OGTT", "setting": "[2]; 2 g glucose/kg oral after 30 min", "result": "significantly reduce the blood glucose level"}
    ]},
    {"molecule": "Peptide Tyrosin-tyrosin [PYY]", "values": [
      {"measurement": "in-vivo half-life period of native peptide", "setting": "[3]", "result": 8, "unit": "min"}
    ]},
    {"molecule": "B1", "values": [
      {"measurement": "half-life period after intravenous injection", "setting": "[4]", "result": "13.4 ± 0.8", "unit": "h"},
      {"measurement": "half-life period relative to Z1Z2/GLTe-G complex (4 h)", "setting": "[4]; iv", "result": "more than 3 times"},
      {"measurement": "level of insulin secretion", "setting": "[5]", "result": "significantly enhance the level of insulin secretion"},
      {"measurement": "AUC of blood glucose in OGTT", "setting": "[6]", "result": "significantly reduced"},
      {"measurement": "blood glucose reducing effect in OGTT", "setting": "[6]; 2 g/kg glucose", "result": "significant blood glucose reducing effect"},
      {"measurement": "blood glucose level at 120 min in OGTT", "setting": "[6]; 120 min", "result": "still significantly reduced"}
    ]}
  ]
}
